Patent US20220372138A1 (IOMX THERAPEUTICS, published 2022)
Numbering of substitutions follows the chain as printed.

Legend:
[1] = target: T1, human IGSF11 (VSIG3) expressed on cells (human, UniProt Q5DX21 23-431); experiment: IgG1 FACS HEK-OE
T1 sequence: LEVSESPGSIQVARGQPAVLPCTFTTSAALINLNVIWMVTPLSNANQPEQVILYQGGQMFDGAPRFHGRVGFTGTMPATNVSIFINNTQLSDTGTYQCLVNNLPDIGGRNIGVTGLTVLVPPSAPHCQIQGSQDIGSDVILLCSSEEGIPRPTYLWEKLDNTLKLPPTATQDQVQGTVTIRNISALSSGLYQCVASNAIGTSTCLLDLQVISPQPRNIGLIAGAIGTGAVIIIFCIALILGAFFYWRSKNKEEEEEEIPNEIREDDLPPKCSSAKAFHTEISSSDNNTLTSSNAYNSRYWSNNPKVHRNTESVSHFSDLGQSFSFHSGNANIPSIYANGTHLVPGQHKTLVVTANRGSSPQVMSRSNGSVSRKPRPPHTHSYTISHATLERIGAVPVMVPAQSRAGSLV

[2] = target: T2, extracellular domain (ECD) of human IGSF11 (VSIG3), recombinant (human, UniProt Q5DX21 23-241); experiment: SPR
T2 construct: biotinylated where captured on streptavidin; tags of the reagent not always stated; also called IGSF11 (ECD domain); ECD-IGSF11
T2 sequence: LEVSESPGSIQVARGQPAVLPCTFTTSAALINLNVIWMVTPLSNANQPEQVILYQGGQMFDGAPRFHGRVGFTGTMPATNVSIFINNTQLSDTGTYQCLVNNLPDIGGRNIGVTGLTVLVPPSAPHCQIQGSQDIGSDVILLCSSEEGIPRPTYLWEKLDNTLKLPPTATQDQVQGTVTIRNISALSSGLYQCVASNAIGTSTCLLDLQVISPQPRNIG

[3] = target: T1, human IGSF11 (VSIG3) expressed on cells; experiment: IgG1 FACS DMS 273
[4] = target: T3, human IGSF11 (VSIG3) ECD, His-tagged (human, UniProt Q5DX21 23-241); experiment: IgG1 ELISA EC50 <0.02 nM
T3 construct: in part bought (SinoBiological 13094-H08H); also called HIS-IGSF11; IGSF11-HIS; not shown: His tag
T3 sequence: T2 sequence

[5] = target: T4, ECD of murine IGSF11, recombinant biotinylated (mouse, UniProt P0C673 23-240); experiment: ELISA RFU>1.0
T4 construct: whole entry named; also called Mouse IGSF11
T4 sequence: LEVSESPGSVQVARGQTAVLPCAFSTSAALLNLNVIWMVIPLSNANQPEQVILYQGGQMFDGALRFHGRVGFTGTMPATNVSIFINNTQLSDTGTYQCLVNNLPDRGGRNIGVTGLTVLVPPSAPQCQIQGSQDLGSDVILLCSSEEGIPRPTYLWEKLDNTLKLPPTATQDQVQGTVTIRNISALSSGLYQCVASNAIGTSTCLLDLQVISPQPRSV

[6] = target: T2, extracellular domain (ECD) of human …; experiment: ELISA RFU>1.0
[7] = target: T5, ECD of cynomolgus monkey IGSF11, recombinant biotinylated (cynomolgus monkey, UniProt Q5DX21 23-241 (human entry)); experiment: Fab ELISA
T5 construct: whole entry named
T5 chain: T2 sequence with P17T, I83V, A185T, S187T
Protocol: (§1) In order to identify IGSF11-specific binding ABPs, monoclonal Fabs expressed from E. coli were generated from the enriched set of anti-IGFS11 antibody-expressing phage. After bacterial lysis, the Fabs were tested for their binding properties and cross-reactivity profile on recombinant ECD-IGSF11 (human, mouse and cynomolgus monkey) by standard ELISA. Briefly, biotinylated recombinant ECD-IGSF11 from human, mouse, or cynomolgus monkey were immobilized at 2 ug/mL on a streptavidin-coated 384-well Maxisorp plate. The surface was blocked with 2% (w/v) skim milk powder in PBST. After three wash cycles with PBST, a bacterial lysate of each of the anti-IGSF11 Fabs in 2% (w/v) skim milk powder was applied to the immobilized IGSF11 and incubated for 1 h. After removing all unbound Fab by 3 wash cycles with PBST, bound Fab antibodies were detected with a goat anti-human Fab antibody conjugated with horseradish peroxidase. After three wash cycles with PBST the ELISA was developed with TMB substrate.

[8] = target: T1, human IGSF11 (VSIG3) expressed on cells; experiment: FACS, DMS 273 cells with scrambled control siRNA (SC)
[9] = target: T1, human IGSF11 (VSIG3) expressed on cells; experiment: FACS, DMS 273 cells with IGSF11 siRNA (KD, knock-down control)
[10] = target: T1, human IGSF11 (VSIG3) expressed on cells; experiment: FACS, M579-A2-luc cells with IGSF11 siRNA (KD, knock-down control)
[11] = target: T1, human IGSF11 (VSIG3) expressed on cells; experiment: FACS, M579-A2-luc cells with scrambled control siRNA (SC)
Streptavidin = Streptavidin (UniProt P22629 37-163, limits assumed); experiment: Fab ELISA
Sequence of Streptavidin (P22629 37-163 limits assumed): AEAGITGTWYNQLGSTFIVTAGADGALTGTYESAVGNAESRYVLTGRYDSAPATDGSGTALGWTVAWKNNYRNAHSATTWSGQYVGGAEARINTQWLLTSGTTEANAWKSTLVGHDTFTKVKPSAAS
Protocol: as §1

[12] = target: T4, ECD of murine IGSF11, recombinant …; experiment: Fab ELISA
Protocol: as §1

[13] = target: T4, ECD of murine IGSF11, recombinant …; experiment: ELISA RFU 0.5-1.0
[14] = target: T2, extracellular domain (ECD) of human …; experiment: ELISA RFU 0.1-0.5
[15] = target: T3, human IGSF11 (VSIG3) ECD, His-tagged; experiment: IgG1 ELISA EC50 0.02-0.05 nM

B1: A-013 (IgG1 format) (antibody, V domains shown)
VH: EVQLVESGGGLIQPGGSLRLSCAASGFTVSSNYMSWVRQAPGKGLEWVSVIYSGGSTYYADSVKGRFTISRDNSKNTLYLQMNSLRAEDTAVYYCARGNPYYYGDLQVNFDYWGQGTLVTVSS
VL: QAVVTQEPSLTVSPGGTVTLTCASSTGAVTSAYYPNWFQQKPGQAPRALIYSTSNKHSWTPARFSGSLLGGKAALTLSGVQPEDEADYYCLLYYGGAWVFGGGTKLTVL
notes: human IgG1 format
**Q.** How did the EC50 [1] turn out when B1 was run?
**A.** 10 to 50 nM

**Q.** What about the Kd [2] of the same binder?
**A.** 100 to 250 nM

**Q.** And the EC50 [3]?
**A.** > 50 nM

**Q.** And the EC50 [4]?
**A.** < 0.02 nM

B2: A-001 (scFv format) (scFv, V domains shown)
VH: EVQLVESGGGLVKPGGSLRLSCAASGFTFSSYSMNWVRQAPGKGLEWVSSISSSSSYIYYADSVKGRFTISRDNAKNSLYLQMNSLRAEDTAVYYCVRSIIVQALGITSVFDIWGQGTMVTVSS
VL: AIRLTQSPSSLSASVGDRVTISCRASQIISNHLNWYQQKPGKAPKLLIYAASRLQTGVPSRFSGSGSETDYTLTISSLQPEDFATYYCQQSYSNPRTFGHGTKVEIK
notes: scFv
**Q.** Which results are given for B2?
**A.** ELISA binding signal (RFU) [5]: > 1 rfu; ELISA binding signal (RFU) [6]: > 1 rfu

B3: C-006 (Fab format) (Fab, V domains shown)
VH: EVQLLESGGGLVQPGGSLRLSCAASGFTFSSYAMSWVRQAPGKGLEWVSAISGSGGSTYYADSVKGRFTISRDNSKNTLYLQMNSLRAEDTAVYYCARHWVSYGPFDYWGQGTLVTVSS
VL: DIQMTQSPSSLSASVGDRVTITCRASQSISSYLNWYQQKPGKAPKLLIYAASSLQSGVPSRFSGSGSGTDFTLTISSLQPEDFATYYCQQSHQSPPITFGQGTKVEIK
notes: Fab from E. coli lysate
**Q.** How did the A450 [7] turn out when B3 was run?
**A.** < 1

B4: C-012 (Fab format) (Fab, V domains shown)
VH: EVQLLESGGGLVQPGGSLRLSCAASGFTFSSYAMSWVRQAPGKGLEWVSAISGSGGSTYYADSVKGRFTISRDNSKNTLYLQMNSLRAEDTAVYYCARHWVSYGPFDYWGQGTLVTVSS
VL: B3 VL
notes: Fab from E. coli lysate
**Q.** How did the A450 [7] turn out when B4 was run?
**A.** < 1

B5: A-007 (IgG1 format) (antibody, V domains shown)
VH: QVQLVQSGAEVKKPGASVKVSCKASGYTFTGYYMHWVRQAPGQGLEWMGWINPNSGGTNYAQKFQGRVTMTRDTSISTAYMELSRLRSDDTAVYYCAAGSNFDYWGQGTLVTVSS
VL: QSALTQPASVSGSPGQSITIACTGSSSDIGSFSYVSWYQQRPGKAPTLIIYGVNNRPLGVSRRFSGSKSGNTASLSISGLQAEDEADYYCSSYTRRSTVIFGGGTKLTVL
notes: human IgG1 format
**Q.** Which “% binding (FACS heat-map)” value [8] does the source give for B5 here?
**A.** 82.3%

**Q.** And the EC50 [1]?
**A.** < 10 nM

**Q.** And the “% binding (FACS heat-map)” value [9]?
**A.** 34.2%

**Q.** And the “% binding (FACS heat-map)” value [10]?
**A.** 9.15%

**Q.** What about the EC50 [3] of the same binder?
**A.** < 10 nM

**Q.** And the “% binding (FACS heat-map)” value [11]?
**A.** 65.6%

**Q.** And the EC50 [4]?
**A.** < 0.02 nM

B6: C-010 (Fab format) (Fab, V domains shown)
VH: QVQLVQSGAEVKKPGSSVKVSCKASGGTFSSYAISWVRQAPGQGLEWMGGIIPIFGTANYAQKFQGRVTITADESTSTAYMELSSLRSEDTAVYYCARGYGEYYPAFDVWGQGTLVTVSS
VL: SYELTQPPSVSVSPGQTASITCSGDKLGDKYASWYQQKPGQSPVLVIYQDSKRPSGIPERFSGSNSGNTATLTISGTQAEDEADYYCASYAHTHSTWVFGGGTKLTVL
notes: Fab from E. coli lysate
**Q.** For B6, which A450 (Streptavidin) is on record?
**A.** < 0.1

**Q.** What about the A450 [12] of the same binder?
**A.** < 1

**Q.** And the A450 [7]?
**A.** < 1

B7: A-016 (scFv format) (scFv, V domains shown)
VH: QVQLQESGAEVKKPGASVKVSCKASGYTFTGYYMHWVRQAPGQGLEWMGGIIPIFGTANYAQKFQGRVTITADESTSTAYMELSSLRSEDTAVYYCAGAGMELTRSGAYYYYGMDVWGQGTTVTVSS
VL: QSALTQPASVSGSPGQSITISCTGTSSDIGGYTFVSWYQQHPGKAPKVMIHDVNNRPSGISNRFSGSKSGNTASLTISGLQAEDEADYYCSSVTSTNTYVFGTGTKVTVL
notes: scFv
**Q.** Which “ELISA binding signal (RFU)” value [13] does the source give for B7 here?
**A.** 0.5 to 1 rfu

**Q.** What about the “ELISA binding signal (RFU)” value [6] of the same binder?
**A.** > 1 rfu

B8: A-034 (scFv format) (scFv, V domains shown)
VH: QMQLVQSGGGLVKPGGSLRLSCAASGFTFSSYTMNWVRQAPGKGLEWVSSISSIGTYIYYADSVKGRFTISRDNAKNSLYLQMNSLRAEDTAVYYCARVLLSGSYYGYFDSWGQGTLVTVSS
VL: QSVLTQPPSVSGAPGQRVTISCTGSSSNIGAGYDVHWYQQLPGTAPKLFIYGNSNRPSGVPDRFSGSKSGTSASLAITGLQAEDEADYYCQSYDSSLSGYVFGTGTKVTVL
notes: scFv
**Q.** B8 was tested. Which “ELISA binding signal (RFU)” value [13] did it give?
**A.** 0.5 to 1 rfu

**Q.** And the “ELISA binding signal (RFU)” value [6]?
**A.** > 1 rfu

B9: A-011 (scFv format) (scFv, V domains shown)
VH: QVQLVESGGGVVQPGRSLRLSCAASGFTFSSYAMHWVRQAPGKGLEWVAVISYDGSNKYYADSVKGRFTISRDNSKNTLYLQMNSLRAEDTAVYYCAEGGALNYYGMDVWGQGTTVTVSS
VL: SSELTQDPGVSVALGQTVRITCQGDSLRHFYATWYQQKPGQAPILVIYGKNNRPSGIPDRFSGSSSEDTASLTITGAQAEDEADYYCQSRDPRNNHLIFGGGTKLIVL
notes: scFv
**Q.** Which “ELISA binding signal (RFU)” value [14] does the source give for B9 here?
**A.** 0.1 to 0.5 rfu

**Q.** And the “ELISA binding signal (RFU)” value [5]?
**A.** > 1 rfu

B10: A-026 (scFv format) (scFv, V domains shown)
VH: QVQLQESGPGLVKPSQTLSLTCTVSGGSISSGGYYWSWIRQHPGKGLEWIGYIYYSGSTYYNPSLKSRVTISVDTSKNQFSLKLSSVTAADTAVYYCASWSLGTSNHGWFDPWGQGTLVTVSS
VL: QSVLTQPPSASGTPGQRVTISCSGSSSNIGSNTVNWYQQLPGTAPKLLISDNNNRPSGVPDRFSGSKSGTSASLAITGLQAEDEADYYCQSYDSNLSGWVFGGGTKLTVL
notes: scFv
**Q.** With B10 as the binder, how does the “ELISA binding signal (RFU)” value [5] read?
**A.** > 1 rfu

**Q.** And the “ELISA binding signal (RFU)” value [6]?
**A.** > 1 rfu

B11: A-019 (scFv format) (scFv, V domains shown)
VH: QVQLVQSGAEVKKPGASVKVSCKASGYTFTGYYMHWVRQAPGQGLEWMGWINPNSGNTGYAQKFQGRVTMTRNTSISTAYMELSSLRSEDTAVYYCARGGQQQLVLDDYWGQGTLVTVSS
VL: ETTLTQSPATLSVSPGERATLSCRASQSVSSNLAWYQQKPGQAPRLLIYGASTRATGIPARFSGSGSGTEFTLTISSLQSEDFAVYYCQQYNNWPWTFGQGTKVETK
notes: scFv
**Q.** Which results are given for B11?
**A.** ELISA binding signal (RFU) [13]: 0.5 to 1 rfu; ELISA binding signal (RFU) [6]: > 1 rfu

B12: A-008 (IgG1 format) (antibody, V domains shown)
VH: QLQLQESGPGLVKPSETLSLTCTVSGGSISSSGYYWGWIRQPPGKGLEWIGSIYYSGSTYYNPSLKSRVTISVDTSKNQFSLKLSSVTAADTAVYYCARHRVRFGEFDAFDIWGQGTMVTVSS
VL: QAVLTQPPSVSGAPGERVTLSCTGTSSNVGADFDVHWYQQFPGTAPRLLIFGSDNRPSGVPDRFSGSKSGTSASLAITGLQVEDEADYYCQAYDVRLSGWVFGGGTKLTVL
notes: human IgG1 format
**Q.** How did the EC50 [15] turn out when B12 was run?
**A.** 0.02 to 0.05 nM

B13: A-008 (scFv format) (scFv, V domains shown)
VH: B12 VH
VL: B12 VL
notes: scFv
**Q.** Which results are given for B13?
**A.** ELISA binding signal (RFU) [5]: > 1 rfu; ELISA binding signal (RFU) [6]: > 1 rfu

B14: A-033 (IgG1 format) (antibody, V domains shown)
VH: QVQLVQSGAEVKKPGASVKVSCKASGYTFTSYGISWVRQAPGQGLEWMGWISAYNGNTNYAQKLQGRVTMTTDTSTSTAYMELRSLRSDDTAVYYCARDHSIVGATTFDYWGQGTLVTVSS
VL: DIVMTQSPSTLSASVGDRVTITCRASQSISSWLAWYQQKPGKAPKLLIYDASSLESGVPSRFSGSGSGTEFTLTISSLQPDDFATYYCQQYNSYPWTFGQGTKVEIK
notes: human IgG1 format
**Q.** B14 was tested. Which EC50 [15] did it give?
**A.** 0.02 to 0.05 nM
